According to US20240425612A1 (published 2024):

What was measured:
[1] = target: hFcγRIIIa-158V-streptavidin-His (human, UniProt P08637 17-208); test: BLI
[2] = target: hFcγRIIIa-158F-streptavidin-His (human, UniProt P08637 17-208); test: BLI
Sequence of hFcγRIIIa-158F-streptavidin-His (P08637 17-208): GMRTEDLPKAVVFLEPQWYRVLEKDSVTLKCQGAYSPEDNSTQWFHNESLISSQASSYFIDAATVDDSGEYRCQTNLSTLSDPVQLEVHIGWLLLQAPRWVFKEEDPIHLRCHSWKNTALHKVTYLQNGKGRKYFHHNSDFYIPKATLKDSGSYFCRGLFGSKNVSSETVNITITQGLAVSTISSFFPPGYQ

Sequence of hFcγRIIIa-158V-streptavidin-His (P08637 17-208 F176V): as the sequence (P08637 17-208) above, with F160V counted along it

Kd [1] [nM]	Kd [2] [nM]	Binder
63.9	56.8	Trastuzumab-MFc2 (antibody) Fc: DKTHTCPPCPAPELPGGPSVFLFPPKPKDTLMISRTPEITCVVVDVSHEDPEVKFNWYVDGVEVHNAKTKPREEQYNSTYRVVSVLTVLHRDWLNGKEYKCKVSNKALPAPEEKTISKAKGQPREPQVYTLPPSRDELTKNQVSLTCLVKGFYPSDIVVEWESNGQPENNYKTTPPVLDSDGSFFLYSKLTVDKSRWQQGNVFSCSVLHEALHNHYTQKSLSLSPGK
85	75.6	Trastuzumab-MFc5 (antibody) Fc: DKTHTCPPCPAPELLGGPDVFLFPPKPMDTLMISRTPEVTCVVVDVSLEDPEVKFNWYVDGVEVHNAKTKPREEQYNSTYRVVSVLTVEHMDWLNGKEYKCKVSNKALPVPEEKTISKAKGQPREPQVYTLPPSRDELTKNQVSLTCLVKGFYPSDIAVEWESNGQPENNYKTTPPVLDSDGSFFLYSKLTVDKSRWQQGNVFSCSVLHEALHNHYTQKSLSLSPGK
32.4	38.5	Trastuzumab-MFc3 (antibody) Fc: DKTHTCPPCPAPELLGGPDVFLFPPKPKDTLMISRTPEVTCVVVDVSLEDPEVKFNWYVDGVEVHNAKTKPREEQYNSTYRVVSVLTVLHRDWLNGKEYKCKVSNKALPVPEEKTISKAKGQPREPQVYTLPPSRDELTKNQVSLTCLVKGFYPSDIAVEWESNGQPENNYKTTPPVLDSDGSFFLYSKLTVDKSRWQQGNVFSCSVLHEALHNHYTQKSLSLSPGK
28.9	29.9	Trastuzumab-MFc6 (antibody) Fc: DKTHTCPPCPAPELPGGPDVFLFPPKPKDTLMISRTPEVTCVVVDVSHEYPEVKFNWYVDGVEVHNAKTKPREEQYNGTYRVVSVLTVLHRDWLNGKEYKCKVSNKALPAPEEKTISKAKGQPREPQVYTLPPSRGELTKNQVSLTCLVKGFYPSDIAVEWESNGQPENNYKTTPPVLDSDGSFFLYSKLTVDKSRWQQGNVFSCSVLHEALHNHYTQKSLSLSPGK
